From article PMC2812052
“And” between values parts separate entries of the source, which are not always exact repeats. Equal entries are not always repeated.

How the values were obtained:
[1] = molecular target: recombinant bAα374-568 fragment corresponding to the full-length bovine fibrinogen αC-domain (bovine); assay: SEC
[2] = molecular target: recombinant bAα374-568 fragment corresponding to the full-length bovine fibrinogen αC-domain (bovine); assay: AUC
[3] = molecular target: recombinant hAα392-610 fragment corresponding to the full-length human fibrinogen αC-domain (human); assay: SEC
[4] = molecular target: recombinant hAα392-610 fragment corresponding to the full-length human fibrinogen αC-domain (human); assay: AUC
[5] = molecular target: recombinant human hAα425-503 fragment, truncated variant of the human fibrinogen αC-domain (human); assay: SEC
[6] = molecular target: recombinant human hAα425-503 fragment, truncated variant of the human fibrinogen αC-domain (human); assay: AUC

Substance: recombinant bAα374-568 fragment corresponding to the full-length bovine fibrinogen αC-domain (domain or fragment)
- oligomers (%) at 1.8 mg/mL, 0.15 M NaCl [1]: 9.5%
- oligomers (%) at 3.7 mg/mL, 0.15 M NaCl [1]: 27.2%
- oligomers (%) at 3.8 mg/mL, 2.0 M NaCl [1]: 54.4%
- Ka [2]: 26100 M⁻¹
- Kd [2]: 38.3 µM

Substance: recombinant hAα392-610 fragment corresponding to the full-length human fibrinogen αC-domain (domain or fragment)
- oligomers (%) at 1.9 mg/mL, 0.15 M NaCl [3]: 15.4%
- oligomers (%) at 3.8 mg/mL, 0.15 M NaCl [3]: 32%
- oligomers (%) at 4.0 mg/mL, 2.0 M NaCl [3]: 58.5%
- Ka [4]: 83200 M⁻¹
- Kd [4]: 12 µM
- stoichiometry N [4]: 11.3

Substance: recombinant human hAα425-503 fragment, truncated variant of the human fibrinogen αC-domain (domain or fragment)
- oligomers (%) at 1.6 mg/mL, 2.0 M NaCl [5]: 43.6%
- oligomers (%) at 3.2 mg/mL, 0.15 M NaCl [5]: 1.7%
- oligomers (%) at 3.2 mg/mL, 1.0 M NaCl [5]: 26.2%
- oligomers (%) at 6.3 mg/mL, 0.15 M NaCl [5]: 6.6%
- stoichiometry N [5]: 5 and 6
- Kd [6]: 1140 µM
